The text below walks through data of patent publication US20250109212A1.

B1: SIRPαV2D1M1-Fc (IgG2) (Fc fusion)
chain: EEELQVIQPDKSVSVAAGESAILHCTITSLIPVGPIQWFRGAGPARELIYNQREGHFPRVTTVSETTKRENMDFSISISNITPADAGTYYCVKFRKGSPDTEFKSGAGTELSVRAKPSAPVVSGPAARATPGGGGSGGGGSERKCCVECPPCPAPPVAGPSVFLFPPKPKDTLMISRTPEVTCVVVDVSHEDPEVQFNWYVDGVEVHNAKTKPREEQFNSTFRVVSVLTVVHQDWLNGKEYKCKVSNKGLPAPIEKTISKTKGQPREPQVYTLPPSREEMTKNQVSLTCLVKGFYPSDIAVEWESNGQPENNYKTTPPMLDSDGSFFLYSKLTVDKSRWQQGNVFSCSVMHEALHNHYTQKSLSLSPGK
B2: SIRPαV2D1M2-Fc (IgG2) (Fc fusion)
chain: B1 chain with K68R, F103V
B3: BSI038×S-004 (bispecific antibody, human IgG2, kappa)
heavy: EEELQVIQPDKSVSVAAGESAILHCTITSLIPVGPIQWFRGAGPARELIYNQREGHFPRVTTVSETTKRENMDFSISISNITPADAGTYYCVKFRKGSPDTEFKSGAGTELSVRAKPSAPVVSGPAARATPGGGGSGGGGSEVQLVESGGGLVKPGGSLRLSCAASGFTFSNYGISWVRQAPGKGLEWVSSISSGGDNTYYPDNVKGRFTISRDNAKNSLYLQMNSLRAEDTAVYYCARAGEKAMDYWGQGTLVTVSSASTKGPSVFPLAPCSRSTSESTAALGCLVKDYFPEPVTVSWNSGALTSGVHTFPAVLQSSGLYSLSSVVTVPSSNFGTQTYTCNVDHKPSNTKVDKTVERKCCVECPPCPAPPVAGPSVFLFPPKPKDTLMISRTPEVTCVVVDVSHEDPEVQFNWYVDGVEVHNAKTKPREEQFNSTFRVVSVLTVVHQDWLNGKEYKCKVSNKGLPAPIEKTISKTKGQPREPQVYTLPPSREEMTKNQVSLTCLVKGFYPSDIAVEWESNGQPENNYKTTPPMLDSDGSFFLYSKLTVDKSRWQQGNVFSCSVMHEALHNHYTQKSLSLSPGK
light: EIVLTQSPATLSLSPGERATLSCRASQTINNNLHWYQQKPGQAPRLLIKYASQSISGIPARFSGSGSGTDFTLTISSLEPEDFAVYFCQQFSSWPLTFGGGTKVEIKRTVAAPSVFIFPPSDEQLKSGTASVVCLLNNFYPREAKVQWKVDNALQSGNSQESVTEQDSKDSTYSLSSTLTLSKADYEKHKVYACEVTHQGLSSPVTKSFNRGEC
B4: BSI038×S-005 (bispecific antibody, human IgG2, kappa)
heavy: B3 heavy with K68R, F103V
light: B3 light

Positions count from the first letter of the chain named.

This assay concerns the target full length human CD47 (NCBI #NP_942088.1) on 293F-CD47 cells (human) (UniProt Q08722). Briefly: cell-based blocking FACS on 293F-CD47 cells, blocked ligand biotin-labeled human CD172a-Fc, MFI.
With B1, the half-inhibitory concentration (IC50) (usually the point on the concentration scale where inhibition reaches its midpoint) is 1.84 nM. Next, B2: 2.37 nM; B3: 1.8 nM; B4: 1.73 nM.
